This series concerns the molecule itself. The series can be described thus: cryo-EM structure.

The stoichiometry N is the number of molecules, sites or subunits per partner or assembly.

B1: N-terminally truncated zebrafish NKCC1 (domain or fragment)
chain: KFGWIKGVLVRCMLNIWGVMLFIRMTWIVGQAGIAYSCIIVIMATVVTTITGCSTSAIATNGFVRGGGAYYLISRSLGPEFGGSIGLIFAFANAVAVAMYVVGFAETVVELLMDSGLLMIDQTNDIRVIGTITVILLLGISVAGMEWEAKAQIFLLVILITAIFNYFIGSFIAVDSKKKFGFFSYDAGILAENFGPDFRGQTFFSVFSIFFPAATGILAGANISGDLADPQMAIPKGTLLAILITGLVYVGVAISAGACIVRDATGIESNFTLISNCTDAACKYGYDFSSCRPTVEGEVSSCKFGLHNDFQVMSVVSGFSPLISAGIFSATLSSALASLVSAPKVFQALCKDNIYPGIAIFGKGYGKNNEPLRGYFLTFGIALAFILIAELNVIAPIISNFFLASYALINFSVFHASLANSPGWRPSFKYYNMWASLAGAILCCVVMFIINWWAALLTNVIVLSLYIYVSYKKPDVNWGSSTQALTYHQALTHSLQLCGVADHIKTFRPQCLVMTGAPNSRPAILHLVHAFTKNVGLMLCGHVRISSRRPNFKELNSDMLRYQRWLLNNNSKAFYTCVVAEDLRQGTQYMLQAAGLGRLRPNTLVIGFKNDWRTGDIKEVETYINLIHDAFDFQYGVVILRLREGLDISHIQGQDDSSGMKDVVVSVDISKDSDGDSSKPSSKATSVQNSPAVQKDEDDDGKAHTQPLLKKDKKSPTVPLNVADQRLLDASQQFQQKQGKGTVDVWWLFDDGGLTLLIPYLIANKKKWKDCKIRVFIGGKINRIDHDRRAMATLLSKFRIDFSDITVLGDINTKPKSEGLTEFAEMIEPYKLREDDMEQEAAEKLKSEEPWRITDNELELYKAKGNRQIRLNELLKEHSSTANLIVMSMPLARKGAVSSALYMAWLDTLSKDLPPILLVRGNHQSVLTFYS
In the case of B1, the “stoichiometry N” value worked out at 2.

The values are drawn from article PMC6856059 (Nature, 2019).
